One data set concerns the target T1, GH5* (UniProt P02259, K41G;S42G;R43G;K53A;R95A).
T1 sequence: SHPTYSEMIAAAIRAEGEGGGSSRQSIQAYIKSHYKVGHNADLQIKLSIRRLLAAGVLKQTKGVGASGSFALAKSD
Put plainly: MST; 150 mM KCl, pH 7.8; MST at 22 C, 5 nM labeled DNA, 0.5 mg/ml BSA, 0.05% Tween 20; 5 mM HEPES pH 7.5, 20 mM NaCl (Table 2); 20 mM HEPES pH 8.0, 100 mM NaCl (Table 4); 20 mM Tris-HCl pH 7.8, 150 mM KCl (Table 5). The conditions noted are these: protein: recombinant; label: 5'-Alexa647 on strand 1; blunt.

Data set [1] concerns the target T2, GH5*:α3NADAR1-PW (/ human ADAR1 α3N and β-wing residues, UniProt P02259, K41G;S42G;R43G;K53A;R95A;del65;D66K;L67K;Q68E;K70N;L71R;S72V;I73L;R74Y;R75S;S91P …).
T2 sequence: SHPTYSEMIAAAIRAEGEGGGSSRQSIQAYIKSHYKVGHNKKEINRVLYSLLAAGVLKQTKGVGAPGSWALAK
Described as above. The conditions noted are these: protein: recombinant; chain copies: 2; label: 5'-Alexa647 on strand 1; blunt.

Data set [2] has as its target T2, GH5*:α3NADAR1-PW. Put plainly: MST; 100 mM NaCl, pH 8.0; MST at 22 C, 5 nM labeled DNA, 0.5 mg/ml BSA, 0.05% Tween 20; 5 mM HEPES pH 7.5, 20 mM NaCl (Table 2); 20 mM HEPES pH 8.0, 100 mM NaCl (Table 4); 20 mM Tris-HCl pH 7.8, 150 mM KCl (Table 5). The conditions noted are these: protein: recombinant; chain copies: 2; label: 5'-Alexa647 on strand 1; blunt.
A further data set addresses vvZαE3L (UniProt P21605). As to the kind of experiment: MST; 20 mM NaCl; text says 20 uM; MST at 22 C, 5 nM labeled DNA, 0.5 mg/ml BSA, 0.05% Tween 20; 5 mM HEPES pH 7.5, 20 mM NaCl (Table 2); 20 mM HEPES pH 8.0, 100 mM NaCl (Table 4); 20 mM Tris-HCl pH 7.8, 150 mM KCl (Table 5). The conditions noted are these: protein: recombinant; label: 5'-Alexa647 on strand 1; blunt.

In the next data set the target is T3, hZαADAR1 (human, UniProt P55265).
T3 sequence: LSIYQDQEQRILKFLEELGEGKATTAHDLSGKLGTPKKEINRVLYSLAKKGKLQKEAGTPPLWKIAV
Put plainly: MST; 20 mM NaCl; text says 1.8 uM; MST at 22 C, 5 nM labeled DNA, 0.5 mg/ml BSA, 0.05% Tween 20; 5 mM HEPES pH 7.5, 20 mM NaCl (Table 2); 20 mM HEPES pH 8.0, 100 mM NaCl (Table 4); 20 mM Tris-HCl pH 7.8, 150 mM KCl (Table 5). The conditions noted are these: protein: recombinant; tags: N-terminal His6, cleaved by thrombin; chain copies: 2; label: 5'-Alexa647 on strand 1; blunt.

B1: B-DNA 21 bp (dsDNA)
DNA 1: TATGCAATCGTAATAAACCGT
DNA 2: ACGGTTTATTACGATTGCATA
As a reminder, the Kd is a measure of binding affinity in units of concentration. As to B1, the Kd with GH5* amounted to 167 ± 50 µM; with GH5*:α3NADAR1-PW [1], 144 ± 16 µM; with GH5*:α3NADAR1-PW [2], 31 ± 2 µM; in the data set with vvZαE3L, 21 ± 0.5 µM; in the data set with hZαADAR1, 2.7 ± 0.5 µM.

The values are drawn from article PMC7736808, “Dual conformational recognition by Z-DNA binding protein is important for the B–Z transition process”.
